Target: α2-antiplasmin

B1: endogenous plasmin of mouse brain slices (protein)
chain: VYLSECKTGIGNGYRGTMSRTKSGVACQKWGATFPHVPNYSPSTHPNEGLEENYCRNPDNDEQGPWCYTTDPDKRYDYCNIPECEEECMYCSGEKYEGKISKTMSGLDCQAWDSQSPHAHGYIPAKFPSKNLKMNYCRNPDGEPRPWCFTTDPTKRWEYCDIPRCTTPPPPPSPTYQCLKGRGENYRGTVSVTVSGKTCQRWSEQTPHRHNRTPENFPCKNLEENYCRNPDGETAPWCYTTDSQLRWEYCEIPSCESSASPDQSDSSVPPEEQTPVVQECYQSDGQSYRGTSSTTITGKKCQSWAAMFPHRHSKTPENFPDAGLEMNYCRNPDGDKGPWCYTTDPSVRWEYCNLKRCSETGGSVVELPTVSQEPSGPSDSETDCMYGNGKDYRGKTAVTAAGTPCQGWAAQEPHRHSIFTPQTNPRAGLEKNYCRNPDGDVNGPWCYTTNPRKLYDYCDIPLCASASSFECGKPQVEPKKCPGRVVGGCVANPHSWPWQISLRTRFTGQHFCGGTLIAPEWVLTAAHCLEKSSRPEFYKVILGAHEEYIRGLDVQEISVAKLILEPNNRDIALLKLSRPATITDKVIPACLPSPNYMVADRTICYITGWGETQGTFGAGRLKEAQLPVIENKVCNRVEYLNNRVKSTELCAGQLAGGVDSCQGDSGGPLVCFEKDKYILQGVTSWGLGCARPNKPGVYVRVSRFVDWIEREMRNN
**Q.** B1 was tested. Which “plasmin activity in brain slices (D-VLK chromogenic plasmin substrate assay)” value did it give?
**A.** Its value is “addition of the plasmin inhibitor α2-antiplasmin (Bajou et al., 2008) inhibited this activity”.
